Experimental data: article PMC8196545 (Cell reports, 2021)
Numbering of substitutions follows the chain as printed.

B1: c8452 (antibody, V domains shown)
VH: EVQLDQSGAEMRKPGTTVKISCKVSGYTTTTDYYVHWVQQAPGKGPQWVGLINVEDGDTIYAEAFQGRVSITADTSKRRVFLDLSGLTSEDSALYFCTTQSLETDTGDYVSAFDSWGQGTLVSVSP
VL: QSVLTQPPSVSAAPGQKVIISCSGRTSSVGTNFVSWYQQVPGAAPKLLIYDNENRPSGISDRFSASTSGTSATLAITALQSGDEADYYCGTWDSGLNPAIFVFGTGTRVSVL
B2: c5407 (antibody, V domains shown)
VH: QMQLQESGGGRVRPLETLSLACSVSGGSISGDGYYWTWIRQTPGRALEWIGHIHHYGITNYNPSLKSRLTISLDKPKNQFFLTLTSVTVADTALYFCARTFYTFWSGPHDFLDLWGHGTAVIISL
VL: EIVMTQSPVTLSASPGERVALSCRASQSISTKLAWYQQRPGQAPTLLISGASSRASGTPARFSGSGSGADFTLTISTLQPEDFVLYFCQQYKEWPLTFGPGTKLEIK
B3: c5482 (antibody, V domains shown)
VH: EVQLVESGGGLAQPGGSLRLSCAASGFDFNNYWFYWVRQAPGRGLVWVARVNADGSNTRYVDSVRGRFTISRDSAKKIVYLEMNSVRDEDTAIYYCSRDTFVRVSSTHGYWSGMDVWGHGTTVTVAS
VL: SNELTQPPSVSVSPGQTATITCSGDVLSRQFVYWYQQKPGRAPVLVMYKDNERPSGIPERFSASSSGTRVTLTISGVQAEDEADYYCQSADNNGAHVFGTGTSVIVL
B4: c13160 (antibody, V domains shown)
VH: QLHLQESGPGLVKPSETLFLTCTVSGGSMSSSSYYWVWIRQPPRGRDWSRIGSIYYTGSTLTTTHPWRVESLLSVDTSKNQFSLKMNSVTAADTARYYCASSGLYAFWGQGILVPVSS
VL: DAVVTQSPLVLPVTLGQPASISCRSNQSLLFGEGNTYLNWFQQRPGQSPRRLIHNISKRDSGVPDRFSGSGSGTDFTLEISRVEAEDVGVYYCMQGIHSPPTWTFGQGTKVEIK
B5: c8603 (antibody, V domains shown)
VH: AVQFLQSGAEVKKPGESLKISCQDRGYGFNDYWIAWVRQMPGKGLEWMGLIYPDDSDTRYSPSFQGQVTILADKSINTAYLQWNSLKASDSAIYYCARLMVVDERSENTFDIWGQGTVVTVSS
VL: SSGLTQSPSLSVSPGQTATVTCSGDPLVNHFASWYQQQPGQSPILVIYQDNQRPSGIPERFSGSKTGNTATLTIGETQAADEADYFCQSWDITTAGMIFGGGTKLTVL
B6: c9517 (antibody, V domains shown)
VH: QVKLQESGPGLVKPSETLSLTCVVSGVSISQSDYFWNWLRQTPGKGLEWLGFISYSGDSFFNPSLGSRLAMSVDTSSNHISLSLKSMTAADAAVYYCARTFCDDVKCYPLFDSWGHGKLVAVSS
VL: DIVMTQSPDSLPLSPGERASINCQSSQSVLYSSDNRNYLAWYQLKPGQPPKLLIYWASVRASGVPDRFSGSGSGTDFTLSISSLQAEDVAVYYCQQYYITPYSFGQGTKVEIR
B7: c9433 (antibody, V domains shown)
VH: QVQLVQSAAELRKPGESVKVSCKASGYRFTSYAISWVRQAPGQGLEWMGWMSPHSRTANYAQRFQGRVTMTTDTSTSTASMELRTLRSDDTAIYYCARRVYDWDIKETRLDPWGQGTLVTVSS
VL: not shown
B8: c27194 (antibody, V domains shown)
VH: QVHLVQSGDELKKPGSSVKVSCTAAGGTLNKYPITWVRQAPGQGLEWMGTLSPLFGTTDYGQKFQGRLTITTDGSAAHMVLAALTPDDTAVYFCATDKAMGVLPALHFWGQGTLITVSS
VL: EIVLTQSPGTLFLSPGERASLSCRASQNIGGLLAWYQQKPGQSPRLLIYDASNRATGIPARFSGSGSGTDFTLTISSLEPGDIAIYFCQQRSSWPVTFGGGTKVQIK
B9: c11461 (antibody, V domains shown)
VH: AGHLVESGGKLIRPGGSLSLSCVASGFTFRNAHMTWVRQVPGQGLEWIALMKSHADGSHTDYSPSVKNRCAISRDDSTSSLYLHLYNLQLDDTGIYFCVHLSSPDEWGLGTPVTVYS
VL: HIVLTQSPVTLSGSQGDTVALSCRANESLRSHLAWYQQRPGQRPKLLIYEVSRRPPATPPRFSGSGSGTDFTLIIRGLEPEDSAVYYCQQGDFWPFSFGQGTNLEIT
B10: c7490 (antibody, V domains shown)
VH: QVRLIQSGTLVARPGSSVKVSCQAPGDILANDAVAWVRQAPGQSLEFLGGLPSNFAVGVRAPKFEDRLSIKVDRATKTVHMELRDLTFDDTAIYYCVTCPQRTSVVMSFYFQHWGQGSLVAVSS
VL: DIQMTQSPASVSASVGDRVTISCRASEEISGRLAWYQQRPGQGPKLLISHTSTLQSGVPSRFTGSGSGTDFTLTISSLQPEDSATYYCQQAQYFPPTFGQGTRLDLK
B11: c22674 (antibody, V domains shown)
VH: QVQLVQSGPEVKKPGTSVKVSCKASGYTFSNYAICWVRQAPGQGLEWVGATSAYNDETSYAQKFQGRVTVTRDSSTSTAYLELRSLRSEDSAVYYCARGGYYESSGSDASDYYAMDVWGQGTTVTVSS
VL: SYELTQPPSVSVSLGQMARITCSGDALSKKYVYWYQQKPGQVPVLVMYQDTERPSGIPERFSGSTSGTIVTLIIGGVQAEDEADYFCLSADDSGTYVVFGGGTKLTVL
B12: c9596 (antibody, V domains shown)
VH: EVQLVQSGAEVKKPGTTIKISCKVSGYSFTDSFIHWLKQTPGKGPEWMGLIDPEASDGNKLYAERFQGRLTITADTTTDTAYMELSSLTSDDTAIYYCASQSPSFSDNSRFYGFFDHWGQGTLVNVAS
VL: DIVMTQSPDSLTVSLGERATFNCKSSQSVLDSSDNKNYLSWYQQKPGRPPKLLIYWASIRRSGVPDRFSGSGSGTDFTLTISSLQAEDAAVYFCQQYHTAPFTFGPGTKVDIK
B13: c6539 (antibody, V domains shown)
VH: QVRLIQSGTEVARPGSSVRVSCQVPGDILDKNAVAWVRQAPGQVPEFMGGLPSNFAYGVRAQKFEDRLSIIPDRSTNTVDMILRSVTSHDTAIYYCVTCPHRTTVIMSFYFEFWGQGTLVAVSS
VL: DVTVTQSPASVSASVGDRVTISCRASEDLMGRLAWYQQKPGHAPKLLISHTSTLQSGVPSRFTGSGSGADFTLTISSLQPEDSATYYCQQAQRFPPTFGQGTRLEIK
B14: c7487 (antibody, V domains shown)
VH: AVTLRQSASEVKKPGTTLKMSCKGSGFSFAESFIYWFRQAPGKRPEYLGLIVPGVSDTVYPDNLKARVAITADTSIETVYLQLSSLTSEDTAVYFCATTTYCSPETCEVAFDVWGQGTTIIVSA
VL: QSALTQPPSASGTPGQRVTIPCSGGSSNVGNNFVSWYQQLPGTAPRLLIYQDNVRPSGVPDRFSGSKSGASASLVISGLRSEDEADYYCCSWEDSLRGPLFGGGTKVTVL
B15: c8597 (antibody, V domains shown)
VH: EVKLEASGGGLAQPGQSLRLSCIGSGFKFADYGLSWVRQTPGKGLQWVGFIRGRGSEATKHYAASVAGRFSMSRDDSKNIAYLQMKNLKTYDTGVYYCAREQYSFDFWSGYEDPYYYYMDLWGRGTTVTVSS
VL: DIQMTQSPAALSASIGDRVTISCRASQNIRDWVAWYQQKPGKAPNLLIYRASTLQTAIPSRFSASGFGTDFTLTISSLQPDDFATYFCQHYNSHFTGYSFGQGTKLEIK
B16: c9370 (antibody, V domains shown)
VH: EVQLVESGGGVVQPGGSLRLSCAASGFTFYSHTMIWVRQAPGKGPQYISHISSTGSNKDYSDSVKGRFTVSRDNDKNSLYLQMDSLRVEDTAIYYCARRSCSLTDCFVRSFSYDMDVWGQGTAVTVSS
VL: QSALTQPASMSGSPGQSISISCTGTTSDIGGYDSVCWYRQHPGEAPTLLIYDVSNRPSGVSGRFSGSKSANTASLTISGLQAEDEADYYCSSYSTGSSLVVFGGGTKLTVI
B17: c754 (antibody, V domains shown)
VH: QVQLVQSGPEVKKPGASARVSCKASGYMFSNNGISWVRQAPGQGLEWMGWISPQNGETLYAHKFQGRVSLTMDTSTNTAFLELTRLRSDDTAVYFCAREAHEDCGEENCFAETWLDTWGQGTQIIVSS
VL: QSVLTQPPSASGTPGQRITMPCSGSNSNIGRRSVCWFQQFPGAAPKVVLYKDSQRPSGVPDRFSGSKSGTSASLTISGLRSDDEADYFCAAWDDSLNVWAFGGGTKLTVL
B18: c5478 (antibody, V domains shown)
VH: QVRLQQWGPGLLKPSDTLSLTCAVHGESFHDYSWTWIRQTPSLGLQWIGEIRPFGEIVHKSSLSGRLSFSRDTSKRQVSLRLTSVTAADAGVYFCARGPVIYHLPDFYYRGYNVWGQGTTVTVSA
VL: DVVVTQSPRSLRVTPGESATIFCRSSQSLRHANGMHYLDWYLQKPGQSPQLLIYLTSNRASGVPDRFSGSGSGTEFTLKISRVEADDVGMYYCMQAIQDPRVFGQGTRLEIK
B19: c5333 (antibody, V domains shown)
VH: EVQLLESGGGLVKPGGSLRLSCEASGYTFDSYGMSWVRQVPGQGLEWVSAINPNGRGTDYADSVKGRFTISRDNSRNILYLNMKNLRADDSAIYYCAKEWQLPFYPSLGPKFDFWGLGTRVTVSS
VL: YIALTQSPLSLAVTPGEPASISCKSSQSLLHSNGFHFLDWYLQKPGKSPQLLIFLGFRRASGVPDRFSASGSGTDFILQISRVEAEDVGVYFCMQGLQTPLTFGGGTKLEIK
B20: c9369 (antibody, V domains shown)
VH: QVQLVQSGAEVKKPGSSVKVSCKASGGSFSDFGISWVRQAPGQGLEWMGGIIPGFETANYGQDFQGRVTMTADESTGTAYMEVRRLRSEDTAVYYCATTGQQNDYYSSGASYKLNYYFGLDVWGQGTAVSVSS
VL: QSVLTQPPSSSGTPGQRVTISCSGSSSNIGSNTVNWYQQLPGTAPKVVISANHQRPSGVPDRFSASKSGASASLAISGLQSEDEADYYCAAWDDSRNAWVFGGGTKLTVL
B21: c9416 (antibody, V domains shown)
VH: B20 VH with K12R, V83L, A110L, F118L
VL: B20 VL with T33S, T43A

target: HIV-1 NL4-3 Env on infected cells (HIV-1 group M subtype B, NL4-3 (pNL4-3 …, strain))

| Binder | binding result |
| --- | --- |
| B1 | binds |
| B2 | binds |
| B3 | binds |
| B4 | binds |
| B5 | binds |
| B6 | binds |
| B7 | binds |
| B8 | binds |
| B9 | binds |
| B10 | binds |
| B11 | binds |
| B12 | binds |
| B13 | binds |
| B14 | binds |
| B15 | binds |
| B16 | binds |
| B17 | binds |
| B18 | binds |
| B19 | binds |
| B20 | binds |
| B21 | binds |
